Results: US10562969B2, “Substitution monotherapy treatment for HIV-1 infection employing antibody PRO140” (CYTODYN INC., priority 2014, dated 2020)
Where “and” joins values, the source holds several entries; their conditions need not be identical. Equal values may be shown once. Read-outs that look alike come from different tables or passages of the source. Marks after values point to notes of the source that are not given here.

Assays:
[1] = single administration of solution, oral, healthy male volunteers; cited from earlier work
HIV-1 [2] = conditions: dose-dependent; treatment period of 10-14 days; cited from earlier work
[3] = in vivo; cited from earlier work
[4] = First Phase 2b treatment substitution study, CD4 cell count and safety; conditions: for CD4 cell count: individual subjects
Excerpt: Efficacy assessments at each week included assessment of viral load and CD4 cells count. Safety assessments consisted of physical exam, lab, and adverse event assessments at each treatment and follow-up visit.
The Per Protocol (PP) population was defined as the set of subjects who meet the ITT population requirements, and were not associated with a major protocol violation. This population was identified before the database lock. The PP population will be the primary analysis population for the analysis of primary and secondary endpoints. […] This population will be used for the analysis of safety parameters.

HIV-1 [5] = experiment: Second Phase 2b extension treatment substitution study, PRO 140 monotherapy; type: in vivo, human
Protocol: As with the first TS study, only subjects with exclusive CCR5-tropic virus were to be enrolled. However, 6 out of 16 subjects were determined to have dual- or mixed-tropic (D/M) virus when screening blood samples were tested by HIV-1 Co-receptor Tropism by Proviral DNA method or Ultradeep Sequencing with Reflex (Quest Diagnostics), as a retrospective exploratory analysis.

HIV-1 [6] = conditions: based on pharmacodynamic data from prior SC and IV studies
Protocol: The maximal change in HIV-1 viral load from baseline was determined at any point 59 days after initiation of therapy. To allow approximate comparisons between the IV and SC doses, the overall AUC observed for repeat SC doses was conservatively estimated by multiplying the measured AUC0-7d by the number of doses administered. Viral load and AUC data were fit to an Emax equation: E=Emax×AUC/(AUC+AUC50).

HIV-1 [7] = tested on: HIV-1
Protocol: All potential study patients were screened and for entry and must be HIV positive with the type of virus, ‘R5’, that uses the coreceptor CCR5 for cell entry and infection.
The first phase 2b TS study, also noted above, was conducted based on the following protocol. The TS study was for the Human Immunodeficiency Virus Type-1 (HIV-1) Infection indication. The TS study involved forty patients, was 14 weeks long, and patients' viral loads were checked weekly. Patients enrolled in the study had undetectable viral load at day one of the study (viral load<50). […] Failure of a patient under study was determined to occur if their viral load (VL) was measured at >400 two times.
Patient enrollment was staggered in this study to facilitate adequate safety monitoring. A lead cohort included 12 subjects. Enrollment of additional 28 subjects was initiated after approval by the independent DSMB.
Subjects who met all eligibility criteria, as per data gathered from Screening Visit were eligible for treatment. […] The first treatment visit took place within 42 days of the screening visit. Eligible subjects received up to 14 treatments, given every week (±3 days) or until virologic failure, whichever occurred first. Visits during the treatment phase commenced on T1, i.e. the date of first treatment, with weekly visits (±3 days) thereafter.
Subjects who experienced virologic failure (defined as two consecutive HIV-1 RNA levels of ≥400 copies/ml separated by at least 3 days) at any time during the treatment phase underwent the virologic failure (VF) visit assessments and then exited the Treatment Phase to enter the follow-up phase of the study.
Subjects who experienced VF were followed up every 4 weeks until the viral suppression was achieved (i.e., plasma HIV-1 RNA levels to return back to <50 copies/mL).
Efficacy Analysis. The main analysis of primary and secondary endpoint will be conducted on the PP population and ITT population will be used for supportive analysis. […] VF is defined as two consecutive HIV-1 RNA levels of ≥400 copies/ml separated by at least 3 days. […] The statistical comparison will be conducted using Wilcoxon rank sum test and the median time to VF for this study will be compared to 30 days.

[8] = in vivo
CCR5 [9] = biological target: T1, CCR5 (Homo sapiens, UniProt P51681); conditions: cited from earlier work
T1 sequence (P51681 whole entry): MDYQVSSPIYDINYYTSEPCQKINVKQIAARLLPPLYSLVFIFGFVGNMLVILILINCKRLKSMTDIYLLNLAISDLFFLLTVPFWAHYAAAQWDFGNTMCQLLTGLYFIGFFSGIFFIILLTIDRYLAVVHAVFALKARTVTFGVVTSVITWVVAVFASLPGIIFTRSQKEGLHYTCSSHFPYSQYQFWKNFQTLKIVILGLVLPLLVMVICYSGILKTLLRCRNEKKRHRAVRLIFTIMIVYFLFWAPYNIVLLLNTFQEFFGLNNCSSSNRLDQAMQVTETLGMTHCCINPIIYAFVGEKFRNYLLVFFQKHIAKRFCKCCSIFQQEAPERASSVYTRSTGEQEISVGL

R5 HIV-1 [10] = conditions: cited from earlier work
[11] = biological target: CCR5 on circulating lymphocytes (Homo sapiens, UniProt P51681); conditions: single IV injection; cited from earlier work
CCR5 on circulating lymphocytes, sequence (P51681 whole entry): as above

R5 HIV-1 [12] = conditions: cited from earlier work; remark: listed apart in the source
HIV-1 [13] = conditions: antiviral; cited from earlier work
HIV-1 [14] = conditions: repeated administration; cited from earlier work
HIV-1 [15] = conditions: cited from earlier work
HIV-1 [16] = conditions: cited from earlier work; remark: listed apart in the source
[17] = cited from earlier work
[18] = cited from earlier work; remark: listed apart in the source
[19] = cited from earlier work; for mean change in CD4+ cell counts from baseline: 5 mg/kg IV
HIV-1 [20] = conditions: cited from earlier work; remark: listed apart in the source
[21] = subjects treated with SC PRO 140; cited from earlier work
CCR5 [22] = biological target: T1, CCR5; parameters: endogenous in cells; conditions: for 29 days after treatment with both 5 and 10 mg/kg doses; cited from earlier work
[23] = interim, first cohort of 12 patients

In the case of `CCCCOCCOc1ccc(-c2ccc3c(c2)/C=C(/C(=O)Nc2ccc([S@@+]([O-])Cc4cncn4CCC)cc2)CCCN3CC(C)C)cc1` [TAK-652], the “safety, tolerability” value [1] is given as “safe and well tolerated”.

In the case of `Cc1nnc(C(C)C)n1[C@H]1C[C@H]2CC[C@@H](C1)N2CC[C@H](NC(=O)C1CCC(F)(F)CC1)c1ccccc1` [UK-427,857], the “mean reductions in HIV-1 RNA levels” value (HIV-1 [2]) is listed as “about 1 log10” and the “clinically significant changes in QTc intervals” value [3] is listed as “none of the above-identified agents induced clinically significant changes in QTc intervals”.

For `CCO/N=C(\c1ccc(Br)cc1)C1CCN(C2(C)CCN(C(=O)c3c(C)cc[n+]([O-])c3C)CC2)CC1` [SCH-C], the “mean reductions in HIV-1 RNA levels” value (HIV-1 [2]) is listed as “about 1 log10”.

In the case of `CCCCN1C(=O)[C@@H]([C@H](O)C2CCCCC2)NC(=O)C12CCN(Cc1ccc(Oc3ccc(C(=O)O)cc3)cc1)CC2` [GW873140], the “mean reductions in HIV-1 RNA levels” value (HIV-1 [2]) is listed as “about 1 log10”.

For `COC[C@@H](c1ccc(C(F)(F)F)cc1)N1CCN(C2(C)CCN(C(=O)c3c(C)ncnc3C)CC2)C[C@@H]1C` [SCH-D], the “mean reductions in HIV-1 RNA levels” value (HIV-1 [2]) is listed as “about 1 log10” and the “clinically significant changes in QTc intervals” value [3] is listed as “none of the above-identified agents induced clinically significant changes in QTc intervals”.

B1: PRO 140: humanized IgG4,κ monoclonal antibody (mAb) to the C-C chemokine receptor type 5 (CCR5) (antibody, chains of the INN, looked up, V domains shown)
VH: EVQLVESGGGLVKPGGSLRLSCAASGYTFSNYWIGWVRQAPGKGLEWIGDIYPGGNYIRNNEKFKDKTTLSADTSKNTAYLQMNSLKTEDTAVYYCGSSFGSNYVFAWFTYWGQGTLVTVSS
VL: DIVMTQSPLSLPVTPGEPASISCRSSQRLLSSYGHTYLHWYLQKPGQSPQLLIYEVSNRFSGVPDRFSGSGSGTDFTLKISRVEAEDVGVYYCSQSTHVPLTFGQGTKVEIK
In the case of B1, the “subjects reporting 'general disorders and administration site conditions' AEs” value ([4]; 13 of 40 subjects) is reported as 32.5%, the “subjects reporting 'infections and infestations' AEs” value ([4]; 14 of 40 subjects) is reported as 35% and the “reported AEs deemed either unlikely or not related to study treatment” value ([4]; 63/89 AEs) is reported as 70.7%. For the same molecule, the “reported AEs deemed mild in nature” value ([4]; 72/89 AEs) was 80.8%, the “subjects who experienced one or more adverse events” value ([4]; after at least one dose of PRO 140) was 28 of 40 subjects and the “subjects who experienced an SAE” value ([4]; deemed not related to the study drug) was 1 of 40 subjects. The CD4 cell count ([4]; visit T3) was 585 /mm^3 and 1043 /mm^3 and 760 /mm^3 and 962 /mm^3 and 667 /mm^3 and 755 /mm^3 and 1299 /mm^3 and 677 /mm^3 and 497 /mm^3 and 443 /mm^3 and 625 /mm^3 and 554 /mm^3 and 901 /mm^3 and 858 /mm^3 and 513 /mm^3, the CD4 cell count ([4]; visit T5) was 585 /mm^3 and 465 /mm^3 and 356 /mm^3 and 994 /mm^3 and 704 /mm^3 and 831 /mm^3 and 642 /mm^3 and 509 /mm^3 and 514 /mm^3 and 859 /mm^3 and 665 /mm^3 and 785 /mm^3 and 646 /mm^3 and the “CD4 cell counts throughout the Treatment Phase” value ([4]; overall review, 40 subjects) was “maintained at stable levels”. The “Proportion of Subjects with Virologic Failure within 24 weeks of PRO 140 Monotherapy” value (HIV-1 [5]; Total (N = 16)) was 4/16, the “subjects experiencing virologic failure in the Extension study” value (HIV-1 [5]; four out of 16 subjects) was 25% and the “Time on PRO 140 Monotherapy” value (HIV-1 [5]; individual subjects, interim, includes duration from PRO 140 Substitution study) was 27 # of weeks (3×) and 28 # of weeks (2×) and 31 # of weeks and 22 # of weeks (5×) and 24 # of weeks and 29 # of weeks and 26 # of weeks. The “subjects with more than 20 weeks of PRO 140 monotherapy” value (HIV-1 [5]; interim, first TS study plus Extension) was 10 out of 16 subjects and 14 out of 16 subjects, the “duration of complete viral-load suppression” value (HIV-1 [5]; ongoing extension study) was ~11 months and the “trough concentrations at which maximum virologic suppression is expected” value (HIV-1 [6]) was ≥ 5 μg/mL. For the same molecule, the “enrolled subjects who completed 12 weeks of PRO 140 Monotherapy without experiencing virologic failure” value (HIV-1 [7]; 22 out of 40 enrolled subjects) was 55%, the “Proportion of Subjects with Virologic Failure within 4 weeks of PRO 140 Monotherapy” value (HIV-1 [7]; CCR5 (N = 24)) was 1/24 and the “Proportion of Subjects with Virologic Failure within 12 weeks of PRO 140 Monotherapy” value (HIV-1 [7]; CCR5 (N = 24)) was 8/24. The “Virologic Failure anytime during Treatment Phase” value (HIV-1 [7]; CCR5- plus Dual/Mixed-tropic Population N = 40) was 18 n, the “Proportion of Subjects with Virologic Failure within 12 weeks of PRO 140 Monotherapy” value (HIV-1 [7]; Total (N = 40)) was 18/40 and the “Proportion of Subjects with Virologic Failure within 4 weeks of PRO 140 Monotherapy” value (HIV-1 [7]; Total (N = 40), 350 mg SC weekly) was 1/40. For the same molecule, the “Virologic Failure” value (HIV-1 [7]; individual subjects reported as Dual/Mixed) was “YES”, the “patients who experienced virologic failure after 11 weeks of monotherapy” value (HIV-1 [7]; [23]) was 7 patients and the “patients who had not experienced virologic failure after 10 weeks of monotherapy” value (HIV-1 [7]; [23]) was “five”. The “patients who passed four weeks of monotherapy (no virologic failure)” value (HIV-1 [7]; [23]) was 100%, the “patients with viral load suppression after 8 weeks of monotherapy” value (HIV-1 [7]; interim, first cohort, excluding two dual-mix virus patients (six of ten)) was 60% and the “virologic failure subjects who achieved viral suppression to <400 and to 'Non Detectable' or <50 HIV-1 RNA copies/ml” value (HIV-1 [7]; once ART reinitiated, seventeen of eighteen subjects) was 94.4%. For the same molecule, the PK profile [8] was “favorable PK profile similar to that seen in prior clinical studies”, the “PK samples, difference between subjects with and without virologic failure” value [8] was “no significant difference observed” and the “Block Natural Activity of CCR5” value (CCR5 [9]) was “No”. The “time mean viral load reductions of greater than 1 login were sustained post-treatment” value (R5 HIV-1 [10]; 5 mg/kg IV group) was 2-3 weeks, the “development of viral resistance to PRO 140” value (R5 HIV-1 [10]; after single IV dose, followed 58 days) was “no significant development of viral resistance to PRO 140 was observed” and the “viral load reduction on average” value (R5 HIV-1 [10]; single 5 mg/kg IV dose) was 1.83 login. The “duration of significant masking of CCR5 on circulating lymphocytes” value [11] was 2-4 weeks, the “persistence of antiviral effects after the final dose” value (R5 HIV-1 [12]; 324 mg SC doses) was “one week” and the “mean nadir reduction in viral load” value (R5 HIV-1 [12]; 324 mg SC weekly for three weeks) was 1.65 log10. The IC90 (HIV-1 [13]) was “about 4 μg/ml”, the “control of HIV-1 replication” value (HIV-1 [14]) was “prolonged control of HIV-1 replication without viral escape” and the “Development of Resistance in Vitro” value (HIV-1 [15]) was “None at 40 weeks”. For the same molecule, the “Viral Cross-Resistance” value (HIV-1 [15]) was “Limited”, the “drops in plasma HIV-1 RNA levels” value (HIV-1 [16]; repetitive weekly administration of 324 mg SC) was “approximately 1.5 log10” and the “drops in plasma HIV-1 RNA levels” value (HIV-1 [16]; single subcutaneous doses of 324 mg) was “approximately 1.0 log10”. For the same molecule, the Tolerability ([17]; in vivo) was “No Toxicity”, the “time serum concentrations are maintained above the IC50 for clinical isolates of HIV-1” value ([17]; single dose of 324 mg) was “at least 2 weeks” and the “mean AUC from time zero to infinity (AUC∞)” value ([18]; 5 mg/kg single IV, serum) was 278 mg·days/L. The “mean AUC from time zero to infinity (AUC∞)” value ([18]; in vivo, iv, 0.5 mg/kg) was 11.1 mg·days/L, the mean serum half-life ([18]; in vivo, iv, 5 mg/kg) was 84 h and the “mean change in CD4+ cell counts from baseline” value (from here on “mean change in CD4+ cell counts”) ([19]; day 8) was “+129 cells/μL”. The “mean change in CD4+ cell counts” value ([19]; day 15) was “+96 cells/μL”, the “mean change in CD4+ cell counts” value ([19]; day 22) was “+83 cells/μL” and the “effect on QTc interval or other electrocardiographic parameters” value ([19]; in vivo, iv) was “no significant effect”. The “mean nadir reduction in viral load” value (HIV-1 [20]; single 5 mg/kg IV dose) was 1.8 log10, the “mean nadir reduction in viral load” value (HIV-1 [20]; single 10 mg/kg IV dose) was 1.8 log10 and the “reduction in viral loads, all PRO 140-treated subjects” value (HIV-1 [20]; single IV infusion 5 or 10 mg/kg) was “more than 10 fold”. For the same molecule, the “mean max log10 reductions in viral load” value (HIV-1 [20]; treatment groups (5 and 10 mg/kg IV)) was 1.83 log10, the “CD4+ cell counts” value [21] was “trend towards increased CD4+ cell counts” and the “receptor occupancy (reduction in the number of cells detected)” value (CCR5 [22]) was > 85%.
